Three substances from patent publication US20110319318A1, “COVALENT MILK PROTEIN/ISOTHIOCYANATE COMPLEXES” (NESTEC S.A., priority 2009, published 2011) can be followed below.

The nature of the data set: Foaming properties (Foamscan). On the set-up: key to foam capacity: FC = volume of foam / volume of gas injected; key to foam expansion: FE = volume of foam / volume of liquid in the foam. As to conditions: for foam capacity / foam expansion / foam liquid stability: 55 μM BLG. Type of data set: physicochemical. The procedure: Foaming properties of samples (prepared as described in example 1) were evaluated using the standardized method proposed by Guillerme C, Loisel W, Bertrand D, Popineau Y. Study of foam stability by video image analysis: Relationship with the quantity of liquid in the foams. 1993. J Text Stud, 24, 287-302. The apparatus used was a standard version of the Foamscan™ from Teclis-ITConcept (Longessaigne, France). The principle of the method is to foam a definite quantity of protein dispersion by infusing gas into it through a glass frit of specific porosity. The gas flow and duration of the bubbling are controlled. The foam is generated on the surface of the liquid and it rises in the glass tube where its height is followed in real time by image analysis using a charged-coupled device (CCD) camera. The amount of liquid incorporated into the foam and the drainage rate are followed by measuring the conductivity as a function of time and with reference to the conductivity of the solution before bubbling, in the cuvette (with the remaining liquid phase), and at electrodes placed at different heights of the tube (Kato A, Takahashi A, Matsudomi N, Kobayashi K. Determination of foaming properties of proteins by conductivity measurements. 1983. J Food Sci, 48, 62-65).
BLG-AITC conjugates were prepared as described in example 1 and then acidified to pH 7.0 or 4.0 by adding 1M HCl. The amount of HCl added was ˜0.02% and ˜0.8% of the total volume, for neutral and acidic pH adjustment, respectively. 12 mL of each sample at both pHs, was put into 12 mL-glass vial and heated on 85° C. for 15 min, in addition to 5 min necessary for temperature in the vial to reach 85° C. The heating was done without agitation, in a temperature-controlled water-bath. Subsequently, samples were let to cool down at room temperature over 40 minutes under a mild agitation, and then put on ice until further analysis.
A volume of 20 mL of the sample solution (non-heated and heated BLG-AITC covalent complexes with the AITC to BLG molar ratio 0.5, 1 and 2, at both pH), diluted to 55 μM BLG (0.1%) was placed in the cuvette. Nitrogen at the flow rate 80 mL/min was bubbled in through the glass frit of porosity 4, creating the air bubbles with diameters between 10 and 16 μm. This flow rate allowed efficient foam formation before strong gravitational drainage occurred. The bubbling was stopped when the foam volume of 110 cm^3 was reached. Subsequently, foam capacity (FC=volume of foam/volume of gas injected) and foam expansion (FE=volume of the foam/volume of the liquid in the foam) were calculated. Foam volume and liquid stability (time for the foam to drain 50% of its initial liquid content) were followed over next 30 min at 24±1° C.

Setting [1] is: pH 4.0 with heating (85° C., 15 min).
[2] abbreviates: pH 7.0 with heating (85° C., 15 min).

As to “AITC/BLG ratio 0.5: BLG-AITC covalent complex, AITC to BLG molar mixing ratio 0.5”, the foam capacity is listed as 1.16 ± 0.00 under setting [1], 1.18 ± 0.01 (pH 4.0 without heating), 1.14 ± 0.01 under setting [2] and 1.16 ± 0.01 (pH 7.0 without heating). In addition, the foam expansion worked out at 7.1 ± 0.2 under setting [1], 7.1 ± 0.0 (pH 4.0 without heating), 6.7 ± 0.1 under setting [2] and 6.8 ± 0.1 (pH 7.0 without heating). The foam liquid stability amounted to 200.0 ± 6.9 s under setting [1], 204.5 ± 8.5 s (pH 4.0 without heating), 133.0 ± 4.7 s under setting [2] and 152.0 ± 3.3 s (pH 7.0 without heating).
Turning to “AITC/BLG ratio 1: BLG-AITC covalent complex, AITC to BLG molar mixing ratio 1”, the foam capacity under setting [1] was determined as 1.17 ± 0.01, the foam capacity (pH 4.0 without heating) is 1.18 ± 0.01, the foam capacity under setting [2] is 1.14 ± 0.02 and the foam capacity (pH 7.0 without heating) was 1.16 ± 0.01. The foam expansion runs as follows: under setting [1], 7.3 ± 0.2; (pH 4.0 without heating) 7.1 ± 0.1; under setting [2], 6.8 ± 0.1; (pH 7.0 without heating) 6.7 ± 0.1. The foam liquid stability by setting is: under setting [1], 190.5 ± 2.4 s; (pH 4.0 without heating) 217.5 ± 1.0 s; under setting [2], 130.0 ± 4.2 s; (pH 7.0 without heating) 159.0 ± 1.8 s. For the setting “pH 7.0, with or without heat treatment, over 30 min”, the foam volume stability entry was “best foam stability”.
“AITC/BLG ratio 2: BLG-AITC covalent complex, AITC to BLG molar mixing ratio 2”: the foam capacity was 1.16 ± 0.01 under setting [1], 1.18 ± 0.01 (pH 4.0 without heating), 1.16 ± 0.01 under setting [2] and 1.17 ± 0.01 (pH 7.0 without heating). Besides, the foam expansion stood at 7.1 ± 0.2 under setting [1], 7.0 ± 0.0 (pH 4.0 without heating), 6.7 ± 0.1 under setting [2] and 6.8 ± 0.1 (pH 7.0 without heating). Further, the foam liquid stability by setting is: under setting [1], 193.0 ± 2.7 s; (pH 4.0 without heating) 216.3 ± 5.0 s; under setting [2], 128.0 ± 3.8 s; (pH 7.0 without heating) 145.5 ± 3.9 s.
